Biological target: 5T4 antigen on the cell surface (A431 cells and 5T4 over-expressing recombinant MDA-MB-231 cells) (human) (UniProt Q13641)
Test: flow cytometry (MFI) on 5T4-expressing cells, anti-Fc FITC detection

Chain of 5T4 antigen on the cell surface (A431 cells and 5T4 over-expressing recombinant MDA-MB-231 cells) (human) (Q13641 32-420): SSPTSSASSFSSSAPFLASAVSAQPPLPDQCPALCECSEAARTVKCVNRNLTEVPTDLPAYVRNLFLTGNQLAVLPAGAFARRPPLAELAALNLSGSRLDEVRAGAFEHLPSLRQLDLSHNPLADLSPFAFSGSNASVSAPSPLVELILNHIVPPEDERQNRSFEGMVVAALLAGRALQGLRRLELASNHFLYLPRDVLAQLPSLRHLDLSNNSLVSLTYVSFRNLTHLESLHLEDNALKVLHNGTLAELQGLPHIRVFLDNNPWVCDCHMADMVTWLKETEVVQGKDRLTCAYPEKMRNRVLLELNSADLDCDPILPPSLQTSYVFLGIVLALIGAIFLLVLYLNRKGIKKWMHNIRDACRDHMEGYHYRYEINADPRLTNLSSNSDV

non-binding scFvFc fusion protein
fold less binding than the anti-5T4 scFvFc molecules: 200 fold less

Reference: US11434278
